Results taken from patent US20200024330A1.

Key:
Test in all cases: cell-based or functional assay
[1] = molecular target: HIV-1 Env of isolate 93WR029 (HIV-1)
[2] = molecular target: HIV-1 Env of isolate JRCSF (HIV-1) (UniProt P20871)
[3] = molecular target: HIV-1 Env of isolate MGRM-C-025 (HIV-1)
[4] = molecular target: HIV-1 Env of isolate MGRM-AG-008 (CRF_AG), on pseudovirus (HIV-1)
[5] = molecular target: HIV-1 Env of isolate 93MW959 (HIV-1)
[6] = molecular target: HIV-1 Env of isolate 93IN905 (HIV-1)
[7] = molecular target: HIV-1 Env of isolate MGRM-AE-001 (CRF01_AE), on pseudovirus (HIV-1)
[8] = molecular target: HIV-1 Env of isolate APV-6 (pseudovirus) (HIV-1 isolate APV-6, subtype B)
[9] = molecular target: HIV-1 Env of isolate MGRM-C-014 (HIV-1)
[10] = molecular target: HIV-1 Env of isolate MGRM-F1-021 (subtype F), on pseudovirus (HIV-1)
[11] = molecular target: HIV-1 Env of isolate MGRM-AE-003 (CRF01_AE), on pseudovirus (HIV-1)
[12] = molecular target: HIV-1 Env of isolate MGRM-D-001 (HIV-1)
[13] = molecular target: HIV-1 Env of isolate MGRM-F1-006 (subtype F), on pseudovirus (HIV-1)
[14] = molecular target: HIV-1 Env of isolate 93UG077 (HIV-1)
[15] = molecular target: HIV-1 Env of pseudovirus 93TH305, clade B (HIV-1)
[16] = molecular target: HIV-1 IAVI-C18 envelope protein (Env) on pseudovirus (HIV-1)
[17] = molecular target: HIV-1 MGRM-A-013 envelope glycoprotein (Env) (HIV-1)
[18] = molecular target: HIV-1 Env of isolate MGRM-G-015 (subtype G) (HIV-1)
[19] = molecular target: HIV-1 Env of isolate MGRM-G-019 (subtype G) (HIV-1)
[20] = molecular target: HIV-1 93IN905 envelope glycoprotein (Env) on pseudovirus (HIV-1)
[21] = molecular target: HIV-1 94UG103 envelope protein (Env) on pseudovirus (HIV-1)
[22] = molecular target: HIV-1 98CN009 envelope glycoprotein (Env) on pseudovirus (HIV-1)
[23] = molecular target: HIV-1 Env of isolate MGRM-G-015 (clade G pseudovirus) (HIV-1)
[24] = molecular target: HIV-1 MGRM-C-007 Env (HIV-1)
[25] = molecular target: HIV-1 Env of isolate MGRM-G-011 (subtype G) (HIV-1)
[26] = molecular target: HIV-1 92BR020 Env (pseudovirus) (HIV-1)
[27] = molecular target: HIV-1 Env of isolate MG RM-D-022 (subtype D) (HIV-1)
[28] = molecular target: HIV-1 JR-CSF Env R480A (HIV-1 (isolate JR-CSF)) (UniProt P20871)
[29] = molecular target: HIV-1 JR-CSF Env D474A (HIV-1 (isolate JR-CSF)) (UniProt P20871)
[30] = molecular target: HIV-1 JR-CSF Env P470A (HIV-1 (isolate JR-CSF)) (UniProt P20871)
[31] = molecular target: HIV-1 QH0692.42 Env (pseudovirus) (HIV-1)
[32] = molecular target: HIV-1 JR-CSF Env L179A (HIV-1 (isolate JR-CSF)) (UniProt P20871)
[33] = molecular target: HIV-1 MGRM-Chronic-B-018 Env (pseudovirus) (HIV-1)
[34] = molecular target: HIV-1 MGRM-Chronic-B-004 Env (pseudovirus) (HIV-1)
[35] = molecular target: HIV-1 Env of isolate 92UG114 (subtype D) (HIV-1)
[36] = molecular target: aMLV envelope on pseudovirus (negative control virus)
[37] = molecular target: HIV-1 Env of isolate MGRM-C-019 (pseudovirus) (HIV-1 isolate MGRM-C-019, subtype C)
[38] = molecular target: HIV-1 MGRM-Chronic-B-017 Env (pseudovirus) (HIV-1)
[39] = molecular target: HIV-1 THR0.18 Env (pseudovirus) (HIV-1)
[40] = molecular target: HIV-1 Env of isolate MGRM-G-025 (subtype G) (HIV-1)

Chain of PGT-141 (4964_G22; 4993_K13) (antibody) (VH): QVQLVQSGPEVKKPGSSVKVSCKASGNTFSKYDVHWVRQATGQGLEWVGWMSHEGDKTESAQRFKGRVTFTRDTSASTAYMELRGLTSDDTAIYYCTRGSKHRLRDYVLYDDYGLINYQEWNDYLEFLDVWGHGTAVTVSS
Chain of PGT-141 (4964_G22; 4993_K13) (antibody) (VL): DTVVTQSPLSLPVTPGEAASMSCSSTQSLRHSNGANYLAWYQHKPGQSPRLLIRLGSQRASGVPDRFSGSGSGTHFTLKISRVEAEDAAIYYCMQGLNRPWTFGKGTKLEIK
Chain of 5345_I01 (PGT-137) (antibody) (VH): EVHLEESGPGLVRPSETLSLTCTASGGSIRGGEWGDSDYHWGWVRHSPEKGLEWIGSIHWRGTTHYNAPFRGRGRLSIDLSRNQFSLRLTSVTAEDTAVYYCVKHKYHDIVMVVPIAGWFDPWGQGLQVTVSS
Chain of 5345_I01 (PGT-137) (antibody) (VL): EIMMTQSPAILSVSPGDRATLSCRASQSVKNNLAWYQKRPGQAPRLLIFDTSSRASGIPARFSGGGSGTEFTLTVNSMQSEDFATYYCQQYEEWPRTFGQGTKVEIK
Chain of PGT-144 (4970_K22) (antibody) (VH): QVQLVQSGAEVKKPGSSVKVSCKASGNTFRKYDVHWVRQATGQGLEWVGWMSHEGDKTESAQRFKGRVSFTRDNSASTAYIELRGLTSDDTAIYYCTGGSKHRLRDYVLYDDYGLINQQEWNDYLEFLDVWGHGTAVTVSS
Chain of PGT-144 (4970_K22) (antibody) (VL): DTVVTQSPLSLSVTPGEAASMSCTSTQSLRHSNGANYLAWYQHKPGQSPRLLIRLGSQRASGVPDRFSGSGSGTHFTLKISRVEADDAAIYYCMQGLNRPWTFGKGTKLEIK

Row | Substance | neutralization IC50 [18] | neutralization IC50 [19] | IC50 (ug/ml), neutralizing activity [20] | neutralization IC50 [25] | IC50, pseudovirus neutralization [26] | IC50 (µg/mL), pseudovirus neutralization [27] | Fold IC50 increase relative to wild-type [28] | Fold IC50 increase relative to wild-type [29] | Fold IC50 increase relative to wild-type [30] | IC50, pseudovirus neutralization [31] | Fold IC50 increase relative to wild-type [32] | IC50, pseudovirus neutralization [33] | IC50, pseudovirus neutralization [34] | IC50 (µg/mL), pseudovirus neutralization [35] | IC50 (ug/ml), neutralizing activity [36] | IC50 (µg/mL) neutralization [37] | IC50, pseudovirus neutralization [38] | IC50, pseudovirus neutralization [39] | neutralization IC50 [40] | other results
1 | 5345_I01 (PGT-137) (antibody) | – | – | – | – | – | – | – | – | – | – | – | – | – | – | – | – | – | – | – | neutralization IC50 [1]: > 50 µg/mL; IC50 [2]: > 50 µg/mL; IC50 [3]: > 50 µg/mL; IC50, single-round pseudovirus neutralization [4]: > 50 µg/mL; IC50 [5]: > 50 µg/mL; IC50 [6]: 0.042 µg/mL; IC50, single-round pseudovirus neutralization [7]: > 50 µg/mL; IC50 (µg/mL) neutralization [8]: > 50 µg/mL; IC50 [9]: > 50 µg/mL; IC50, pseudovirus neutralization [10]: > 50 µg/mL; IC50, single-round pseudovirus neutralization [11]: > 50 µg/mL; IC50 [12]: > 50 µg/mL; IC50, pseudovirus neutralization [13]: > 50 µg/mL; neutralization IC50 [14]: > 50 µg/mL
2 | 1496_C09 (PG9) (TCN-109) (antibody) | 6.6 µg/mL | 14.6 µg/mL | 0.048 µg/mL | 0.335 µg/mL | – | – | – | – | – | – | – | – | – | – | – | – | – | – | – | IC50 (µg/ml), pseudovirus neutralization [15]: 2.08 µg/mL; neutralization IC50 [16]: 0.0535 µg/mL; IC50 (µg/ml), pseudovirus neutralization [17]: 0.16 µg/mL; IC50 neutralization [20]: 0.048 µg/mL; IC80, neutralization [20]: 0.308 µg/mL; IC90 (pseudovirus neutralization) [20]: 1.89 µg/mL; IC90, neutralization [20]: 0.981 µg/mL; IC95, neutralization [20]: 3.31 µg/mL; neutralization IC50 [21]: 0.173 µg/mL; IC50 (µg/ml), pseudovirus neutralization [22]: 1.07 µg/mL; IC50 (µg/ml), pseudovirus neutralization [23]: 1.51 µg/mL; IC50 [24]: 0.09 µg/mL
3 | 5123_A06 (PGT-125) (antibody) | – | – | 0.0137 µg/mL | – | 0.016 µg/mL | 0.04 µg/mL | 2.1 fold | 1.4 fold | 1.6 fold | 0.048 µg/mL | 1.3 fold | > 50 µg/mL | 0.007 µg/mL | 0.349 µg/mL | > 10 µg/mL | 0.13 µg/mL | > 50 µg/mL | > 50 µg/mL | – | neutralization IC50 [20]: 0.0137 µg/mL; neutralization IC80 [20]: 0.0494 µg/mL; neutralization IC90 [20]: 0.106 µg/mL; neutralization IC95 [20]: 0.216 µg/mL
4 | PGT-144 (4970_K22) (antibody) | > 50 µg/mL | > 50 µg/mL | – | 1.58 µg/mL | – | – | – | – | – | – | – | – | – | – | – | – | – | – | > 50 µg/mL | –
5 | 5141_B17 (PGT-126) (antibody) | – | – | 0.0194 µg/mL | – | 0.015 µg/mL | > 50 µg/mL | 1.9 fold | 3.3 fold | 2.7 fold | 0.048 µg/mL | 2.6 fold | 0.052 µg/mL | 0.01 µg/mL | 0.038 µg/mL | > 10 µg/mL | 0.005 µg/mL | > 50 µg/mL | > 50 µg/mL | – | IC50 [26]: 0.0163 µg/mL; IC80 [26]: 0.0457 µg/mL; IC90 [26]: 0.0846 µg/mL; IC95 [26]: 0.152 µg/mL
6 | PGV04 (antibody) | 0.333 µg/mL | 0.027 µg/mL | – | 0.78 µg/mL | – | – | – | – | – | – | – | – | – | – | – | – | – | – | 1.61 µg/mL | IC50 (µg/mL), pseudovirus neutralization [12]: > 50 µg/mL; IC50 [14]: 0.083 µg/mL
7 | 4877_D15 (PGT-122) (antibody) | – | – | 0.0138 µg/mL | – | 0.021 µg/mL | > 50 µg/mL | – | – | – | 0.493 µg/mL | – | > 50 µg/mL | 0.008 µg/mL | 0.011 µg/mL | > 10 µg/mL | > 50 µg/mL | 5.66 µg/mL | > 50 µg/mL | – | –
8 | PGT-141 (4964_G22; 4993_K13) (antibody) | > 50 µg/mL | 20.3 µg/mL | – | 0.086 µg/mL | – | – | – | – | – | – | – | – | – | – | – | – | – | – | > 50 µg/mL | –
9 | 4858_P08 (PGT-123) (antibody) | – | – | 0.0071 µg/mL | – | 0.008 µg/mL | > 50 µg/mL | 1.7 fold | 1.1 fold | 0.8 fold | 0.158 µg/mL | 1.2 fold | > 50 µg/mL | 0.008 µg/mL | 0.005 µg/mL | > 10 µg/mL | > 50 µg/mL | > 50 µg/mL | > 50 µg/mL | – | IC50, pseudovirus neutralization [20]: 0.0071 µg/mL; IC80, pseudovirus neutralization [20]: 0.0281 µg/mL; IC90 (pseudovirus neutralization) [20]: 0.0625 µg/mL; IC95, pseudovirus neutralization [20]: 0.131 µg/mL
